Results on 26 sequences are retold here after the supplement of paper PMC12764529.

± gives the half width of the 95% confidence interval.

Data set [1] in a line: folding stability dG unfold from chymotrypsin proteolysis; higher = more stable. Summed up:
(§1)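 Sequencing followed digestion of designed mini-proteins with trypsin and chymotrypsin, each at 11 concentrations in threefold dilutions together with a no-protease condition. The mini-proteins were under 80 residues, had no cysteine, sat in a PA-tagged cDNA display construct, and were kept only if AlphaFold2 dimer inter-PAE was above 15. From the counts, Bayesian fitting gave K50, and unfolding free energy was derived against a sequence-predicted unfolded-state K50 and a shared folded-state K50, per protease or combined.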

The nature of data set [2]: folding stability dG unfold (combined trypsin and chymotrypsin); higher = more stable. Summed up: as §1
Data set [3] in a line: folding stability dG unfold from trypsin proteolysis; higher = more stable. Summed up:
as §1

As to “SAGGSAGGSAGGMTVRITTPDGRVIEIPAKDLSPEQLAALKEAGFEVVSVEPGRVTIRLKSAGGSAGGSAGG [r7_496_TrROS_Hall]”, the “folding stability dG unfold” value turned out to be 1.92 ± 0.036 kcal/mol in data set [1], 1.49 ± 0.13 kcal/mol in data set [2] and 0.865 ± 0.1 kcal/mol in data set [3].
The like results for “SAGGSAGGSAGGMTVTLKAPDGKWLTVPVDPEDPKAVKEAVEELAAKGHPVVEVSTDEKSAGGSAGGSAGGS [r10_231_JUSTAS]” were, in that order, 0.0542 ± 0.097 kcal/mol, 0.355 ± 0.059 kcal/mol and 0.555 ± 0.025 kcal/mol.
The like results for “SAGGSAGGSAGGMTVTTEKAAPSPRQVTVTTVYDPSTGTSVTIVTLPDGSLKVIPSGTLSAGGSAGGSAGGS [r10_996_JUSTAS]” were, in that order, -0.404 ± 0.22 kcal/mol, -0.247 ± 0.23 kcal/mol and 0.193 ± 0.14 kcal/mol.
The like results for “SAGGSAGGSAGGMVIVTFPDGSVREVEVLETEPDGTVVVAPPDRPVETLSGAGLTLTPVPSAGGSAGGSAGG [r7_823_JUSTAS]” were, in that order, -0.524 ± 0.13 kcal/mol, 0.59 ± 0.07 kcal/mol and 1.19 ± 0.071 kcal/mol.
Regarding “SAGGSAGGSAGGMVKITFEKDPNSDKGRVTLTDPNATVTLEYDSEEEAEKAIKERFPELESAGGSAGGSAGG [r7_841_JUSTAS]”, the figures for the “folding stability dG unfold” value in data set [1], in data set [2] and in data set [3] were 0.879 ± 0.02 kcal/mol, 0.435 ± 0.088 kcal/mol and -0.364 ± 0.14 kcal/mol, respectively.
The like results for “SAGGSAGGSAGGMVLVETEPLPDGGYRVLVVFPGTDEVRELYFSSSTTPEQVLDVVLAESAGGSAGGSAGGS [r10_825_TrMRF]” were, in that order, 2.233 ± 0.021 kcal/mol, 2.34 ± 0.083 kcal/mol and 2.44 ± 0.059 kcal/mol.
Regarding “SAGGSAGGSAGGMVVLENGDEVIVETFEFEEPVLDDVSEELREELGVVKVTVTKVTVIRRSAGGSAGGSAGG [r7_324_JUSTAS]”, the “folding stability dG unfold” value in data set [1] was 1.15 ± 0.059 kcal/mol; in data set [2], 1.11 ± 0.13 kcal/mol; in data set [3], 1.08 ± 0.069 kcal/mol.
The like results for “SAGGSAGGSAGGMYKVTITVGGKEITIEVSEEELEELLKALEDEGYEIKEIRVEKLPEESAGGSAGGSAGGS [r10_405_TrROS_Hall]” were, in that order, 3.57 ± 0.097 kcal/mol, 3.63 ± 0.11 kcal/mol and 3.91 ± 0.23 kcal/mol.
The like results for “SAGGSAGGSAGGMYVLIKITNPKTKKEISILIKVKPGDKITFTLPNGAKVEIIELPPEESAGGSAGGSAGGS [r10_957_TrROS_Hall]” were, in that order, 4.28 ± 0.068 kcal/mol, 3.92 ± 0.22 kcal/mol and 3.3 ± 0.13 kcal/mol.
The like results for “SAGGSAGGSAGGNIEIFYFPDGYVVITIWDPDEGWRIVITAKIDPGDGKIKEMDIMPVPSAGGSAGGSAGGS [r10_613_TrROS]” were, in that order, 2.91 ± 0.13 kcal/mol, 2.85 ± 0.19 kcal/mol and 2.67 ± 0.18 kcal/mol.
Turning to “SAGGSAGGSAGGNKVTIPIHIPPGDPGNPEKAIEWAEHIAKELQEKNGGKDVDINIMPSPSAGGSAGGSAGG [r7_440_TrROS]”, the “folding stability dG unfold” value in data set [1] was -0.595 ± 0.079 kcal/mol; in data set [2], 0.174 ± 0.33 kcal/mol; in data set [3], 0.772 ± 0.1 kcal/mol.
“SAGGSAGGSAGGNPLKGNFFRLKLELTLKVEVKIPKKGEKKTFPIKIELELDVPPDSILSAGGSAGGSAGGS [r10_133_TrMRF]”: the “folding stability dG unfold” value in data set [1] was found to be 3.98 ± 0.12 kcal/mol; in data set [2], 3.69 ± 0.11 kcal/mol; in data set [3], 3.39 ± 0.26 kcal/mol.
Regarding “SAGGSAGGSAGGNVIRVEKEPNTVVLYFPDGTYRVVEVEKKDESVKVLSEKVEPIVPGLLSAGGSAGGSAGG [r7_443_JUSTAS]”, the entries for the “folding stability dG unfold” value in data set [1], in data set [2] and in data set [3] were -0.177 ± 0.2 kcal/mol, 0.702 ± 0.059 kcal/mol and 1.12 ± 0.024 kcal/mol, respectively.
On to “SAGGSAGGSAGGNWYIIIYFPPGRKRIIPFDSPEEMREEMKENGMPIKIMPKEDAEKLLSAGGSAGGSAGGS [r10_66_TrROS]”, for which the “folding stability dG unfold” value in data set [1] is 1.25 ± 0.052 kcal/mol; in data set [2], 1.14 ± 0.084 kcal/mol; in data set [3], 0.848 ± 0.078 kcal/mol.
The like results for “SAGGSAGGSAGGPAAGEKVVAVGVNPNGETSVREFTVHPDDPLGEVYTEDGTRWYFYPGTSAGGSAGGSAGG [r7_132_TrMRF]” were, in that order, 0.338 ± 0.23 kcal/mol, 0.342 ± 0.15 kcal/mol and 0.303 ± 0.091 kcal/mol.
The like results for “SAGGSAGGSAGGPAPKIDIEIIGVFKTGNRPILIIRFPDGAVIVIDLDSGEIGVIPPDQISAGGSAGGSAGG [r7_28_TrROS]” were, in that order, 2.24 ± 0.11 kcal/mol, 2.66 ± 0.17 kcal/mol and 2.9 ± 0.19 kcal/mol.
Turning to “SAGGSAGGSAGGPAVPVRTTLPDGRVVYYDPESGLTTIYVPETNETLVRDPATGTVTALSAGGSAGGSAGGS [r10_1057_JUSTAS]”, the “folding stability dG unfold” value in data set [1] is 0.562 ± 0.04 kcal/mol; in data set [2], 0.938 ± 0.036 kcal/mol; in data set [3] it was 1.26 ± 0.027 kcal/mol.
Take “SAGGSAGGSAGGPDPEAYPFRYPDREFVLVRNPDEPDTYTILYPDDKVETVPAEDILPESAGGSAGGSAGGS [r10_556_TrMRF]”: the “folding stability dG unfold” value in data set [1] was -0.0442 ± 0.098 kcal/mol; in data set [2], 0.3 ± 0.06 kcal/mol; in data set [3], 0.473 ± 0.027 kcal/mol.
The like results for “SAGGSAGGSAGGPEAVIEELKKAGYTPKVDPNSSVVTVTYKNPDGTILTKTINVPPSLLSAGGSAGGSAGGS [r10_1173_JUSTAS]” were, in that order, 1.59 ± 0.2 kcal/mol, 1.16 ± 0.26 kcal/mol and -0.269 ± 0.25 kcal/mol.
With “SAGGSAGGSAGGPEIITFRNPGNGVTLMVWRTPNNITVSIYNPDGPQKEIPIPPGEPIFSAGGSAGGSAGGS [r10_976_TrROS]”, the “folding stability dG unfold” value in data set [1] amounted to 0.971 ± 0.36 kcal/mol; in data set [2], 0.875 ± 0.19 kcal/mol; in data set [3] it was 0.833 ± 0.098 kcal/mol.
Take “SAGGSAGGSAGGPEIVSAEVLAVFDDGKLVKVKLRVPTPGKGYRYLEAVFLVKPGEKLLSAGGSAGGSAGGS [r10_1183_TrMRF]”: the “folding stability dG unfold” value in data set [1] was 2.12 ± 0.033 kcal/mol; in data set [2], 2.1 ± 0.033 kcal/mol; in data set [3], 2.05 ± 0.052 kcal/mol.
The like results for “SAGGSAGGSAGGPEKGKWKLVLVTMTIPLPPGASIPIPNGVWIYYTDGKIEIWFLMWVPDSAGGSAGGSAGG [r7_506_TrROS]” were, in that order, 5.07 ± 0.11 kcal/mol, 4.8 ± 0.21 kcal/mol and 3.33 ± 0.15 kcal/mol.
“SAGGSAGGSAGGPEVNIEVERYRLPNGGYLLVIRTSDGEEIVIEFDSPEEALKAAKEIAKSAGGSAGGSAGG [r11_955_TrMRF]”: the results for the “folding stability dG unfold” value in data set [1], in data set [2] and in data set [3] were 2.04 ± 0.056 kcal/mol, 1.93 ± 0.077 kcal/mol and 1.73 ± 0.035 kcal/mol, respectively.
The like results for “SAGGSAGGSAGGPEWRWREFTIPGDPEEIKKLFPNFKILSPEPPPNGMRKVTIWIPPEDSAGGSAGGSAGGS [r10_764_TrROS]” were, in that order, 1.54 ± 0.079 kcal/mol, 1.27 ± 0.12 kcal/mol and -0.0853 ± 0.6 kcal/mol.
The like results for “SAGGSAGGSAGGPIITPKIRDALKAAGKDFSEEEIRGIAEGIAAIAIEKGYPDVVITADASAGGSAGGSAGG [r7_512_TrMRF]” were, in that order, 0.938 ± 0.018 kcal/mol, 0.669 ± 0.045 kcal/mol and -0.259 ± 0.06 kcal/mol.
The like results for “SAGGSAGGSAGGPIPGSTIPSVPVKIVNIHPDGTKTEYFNSDIPIDALKEKFPGEIEFESSAGGSAGGSAGG [r17_125_TrMRF]” were, in that order, 0.734 ± 0.029 kcal/mol, 0.703 ± 0.065 kcal/mol and 0.562 ± 0.065 kcal/mol.
